System: hPXR-dependent promoter-reporter gene plasmid pGL3(DR3)3TK(−105)
Experiment: hPXR-dependent promoter-reporter gene (luciferase) assay in co-transfected LS174T cells
Format: cell-based, human
Conditions: 42 hours; for hPXR-mediated transcriptional activation of the reporter gene upon treatment with rifampicin, relative to wild type hPXR: 10 μM rifampicin, FIG. 6A; for basal activity in the absence of added hPXR activators, relative to wild type hPXR: 0.1% DMSO only, FIG. 6B
Description: FIG. 6: LS174T cells were co-transfected with the promoter artificial hPXR dependent reporter gene pGL3(DR3)3Tk(−105), pCMVβ and expression plasmids for hPXR variants, as indicated. Cells were treated for 42 hours with 10 μM rifampicin or 0.1% DMSO, then harvested and analyzed for luciferase and β-galactosidase activities. Data are shown as mean value ±SD. The activity of each hPXR variant in the presence of DMSO only was taken as 1 (A, B) or 100% (C). A) The effect of hPXR variants following 10 μM rifampicin. B) The effect of hPXR variants in the absence of exogenous inducers.
The functional consequences of the protein variants were investigated in LS174T cells. LS174T cells were first co-transfected with wild-type or variant hPXR expression plasmids together with the hPXR-dependent promoter-reporter gene plasmid pGL3(DR3)3TK(−105). […] The cells were treated with the xenobiotic rifampicin, a known activator of human hPXR (Blumberg, Genes Dev (1998), 3195–3205; Lehmann, J Clin Invest (1998), 1016–1023). […] In contrast, hPXR-mediated transcriptional activation was impaired in V140M, D163G and hPXR-2 variants. […] Changes in basal activity of variants are independent from activator-dependent activity.

| Molecule | hPXR-mediated transcriptional activation of the reporter gene upon treatment with rifampicin, relative to wild type hPXR | basal activity in the absence of added hPXR activators, relative to wild type hPXR |
| --- | --- | --- |
| E18K: hPXR protein variant, amino acid substitution of E to K at position 18 (c. 52G > A, exon 2) (protein, UniProt O75469 1-434, looked up, variant E18K) Nuclear receptor subfamily 1 …: MEVRPKESWNHADFVHCKDTESVPGKPSVNADEEVGGPQICRVCGDKATGYHFNVMTCEGCKGFFRRAMKRNARLRCPFRKGACEITRKTRRQCQACRLRKCLESGMKKEMIMSDEAVEERRALIKRKKSERTGTQPLGVQGLTEEQRMMIRELMDAQMKTFDTTFSHFKNFRLPGVLSSGCELPESLQAPSREEAAKWSQVRKDLCSLKVSLQLRGEDGSVWNYKPPADSGGKEIFSLLPHMADMSTYMFKGIISFAKVISYFRDLPIEDQISLLKGAAFELCQLRFNTVFNAETGTWECGRLSYCLEDTAGGFQQLLLEPMLKFHYMLKKLQLHEEEYVLMQAISLFSPDRPGVLQHRVVDQLQEQFAITLKSYIECNRPQPAHRFLFLKIMAMLTELRSINAQHTQRLLRIQDIHPFATPLMQELFGITGS | as efficiently as wild type hPXR | lower basal activity than wild type hPXR |
| A370T: hPXR protein variant, amino acid substitution of A to T at position 370 (c. 1108G > A, exon 8) (protein, UniProt O75469 1-434, looked up, variant A370T) Nuclear receptor subfamily 1 …: MEVRPKESWNHADFVHCEDTESVPGKPSVNADEEVGGPQICRVCGDKATGYHFNVMTCEGCKGFFRRAMKRNARLRCPFRKGACEITRKTRRQCQACRLRKCLESGMKKEMIMSDEAVEERRALIKRKKSERTGTQPLGVQGLTEEQRMMIRELMDAQMKTFDTTFSHFKNFRLPGVLSSGCELPESLQAPSREEAAKWSQVRKDLCSLKVSLQLRGEDGSVWNYKPPADSGGKEIFSLLPHMADMSTYMFKGIISFAKVISYFRDLPIEDQISLLKGAAFELCQLRFNTVFNAETGTWECGRLSYCLEDTAGGFQQLLLEPMLKFHYMLKKLQLHEEEYVLMQAISLFSPDRPGVLQHRVVDQLQEQFTITLKSYIECNRPQPAHRFLFLKIMAMLTELRSINAQHTQRLLRIQDIHPFATPLMQELFGITGS | slightly impaired transcriptional activation | 207 % of wild type |
| P27S: hPXR protein variant, amino acid substitution of P to S at position 27 (c. 79C > T, exon 2) (protein, UniProt O75469 1-434, looked up, variant P27S) Nuclear receptor subfamily 1 …: MEVRPKESWNHADFVHCEDTESVPGKSSVNADEEVGGPQICRVCGDKATGYHFNVMTCEGCKGFFRRAMKRNARLRCPFRKGACEITRKTRRQCQACRLRKCLESGMKKEMIMSDEAVEERRALIKRKKSERTGTQPLGVQGLTEEQRMMIRELMDAQMKTFDTTFSHFKNFRLPGVLSSGCELPESLQAPSREEAAKWSQVRKDLCSLKVSLQLRGEDGSVWNYKPPADSGGKEIFSLLPHMADMSTYMFKGIISFAKVISYFRDLPIEDQISLLKGAAFELCQLRFNTVFNAETGTWECGRLSYCLEDTAGGFQQLLLEPMLKFHYMLKKLQLHEEEYVLMQAISLFSPDRPGVLQHRVVDQLQEQFAITLKSYIECNRPQPAHRFLFLKIMAMLTELRSINAQHTQRLLRIQDIHPFATPLMQELFGITGS | as efficiently as wild type hPXR | lower basal activity than wild type hPXR |
| D163G: hPXR protein variant, amino acid substitution of D to G at position 163 (c. 488A > G, exon 4) (protein, UniProt O75469 1-434, looked up, variant D163G) Nuclear receptor subfamily 1 …: MEVRPKESWNHADFVHCEDTESVPGKPSVNADEEVGGPQICRVCGDKATGYHFNVMTCEGCKGFFRRAMKRNARLRCPFRKGACEITRKTRRQCQACRLRKCLESGMKKEMIMSDEAVEERRALIKRKKSERTGTQPLGVQGLTEEQRMMIRELMDAQMKTFGTTFSHFKNFRLPGVLSSGCELPESLQAPSREEAAKWSQVRKDLCSLKVSLQLRGEDGSVWNYKPPADSGGKEIFSLLPHMADMSTYMFKGIISFAKVISYFRDLPIEDQISLLKGAAFELCQLRFNTVFNAETGTWECGRLSYCLEDTAGGFQQLLLEPMLKFHYMLKKLQLHEEEYVLMQAISLFSPDRPGVLQHRVVDQLQEQFAITLKSYIECNRPQPAHRFLFLKIMAMLTELRSINAQHTQRLLRIQDIHPFATPLMQELFGITGS | 50 % of wild type activity | approximately 10 % of wild type |
| V140M: hPXR protein variant, amino acid substitution of V to M at position 140 (c. 418G > A, exon 4) (protein, UniProt O75469 1-434, looked up, variant V140M) Nuclear receptor subfamily 1 …: MEVRPKESWNHADFVHCEDTESVPGKPSVNADEEVGGPQICRVCGDKATGYHFNVMTCEGCKGFFRRAMKRNARLRCPFRKGACEITRKTRRQCQACRLRKCLESGMKKEMIMSDEAVEERRALIKRKKSERTGTQPLGMQGLTEEQRMMIRELMDAQMKTFDTTFSHFKNFRLPGVLSSGCELPESLQAPSREEAAKWSQVRKDLCSLKVSLQLRGEDGSVWNYKPPADSGGKEIFSLLPHMADMSTYMFKGIISFAKVISYFRDLPIEDQISLLKGAAFELCQLRFNTVFNAETGTWECGRLSYCLEDTAGGFQQLLLEPMLKFHYMLKKLQLHEEEYVLMQAISLFSPDRPGVLQHRVVDQLQEQFAITLKSYIECNRPQPAHRFLFLKIMAMLTELRSINAQHTQRLLRIQDIHPFATPLMQELFGITGS | 50 % of wild type activity | 130 % of wild type |
| G36R: hPXR protein variant, amino acid substitution of G to R at position 36 (c. 106G > A, exon 2) (protein, UniProt O75469 1-434, looked up, variant G36R) Nuclear receptor subfamily 1 …: MEVRPKESWNHADFVHCEDTESVPGKPSVNADEEVRGPQICRVCGDKATGYHFNVMTCEGCKGFFRRAMKRNARLRCPFRKGACEITRKTRRQCQACRLRKCLESGMKKEMIMSDEAVEERRALIKRKKSERTGTQPLGVQGLTEEQRMMIRELMDAQMKTFDTTFSHFKNFRLPGVLSSGCELPESLQAPSREEAAKWSQVRKDLCSLKVSLQLRGEDGSVWNYKPPADSGGKEIFSLLPHMADMSTYMFKGIISFAKVISYFRDLPIEDQISLLKGAAFELCQLRFNTVFNAETGTWECGRLSYCLEDTAGGFQQLLLEPMLKFHYMLKKLQLHEEEYVLMQAISLFSPDRPGVLQHRVVDQLQEQFAITLKSYIECNRPQPAHRFLFLKIMAMLTELRSINAQHTQRLLRIQDIHPFATPLMQELFGITGS | as efficiently as wild type hPXR | lower basal activity than wild type hPXR |

Reference: patent US7122652B1, “Polymorphisms in the human hPXR gene and their use diagnostic and therapeutic applications” (priority 1999, dated 2006)
